Where two headings read alike, the source gives them in different places. No end group written: not given here.
Columns and labels:
[1] = tested on: lumbar vertebral nppc expression, plasma NTproCNP; conditions: cited from earlier work
plasma NTproCNP = conditions: short non Ach children starting daily HGH, day 21; cited from earlier work
NPR2 = assay: cGMP catchpoint assay of NPR2 variants in transfected HEK293 cells treated with 20 nM CNP; format: cell-based; design: key to Lable: loss-of-function (LoF); Gain-of-function (GoF); conditions: for average phenotype: cGMP normalized to RedLuciferase and to WT = 1, HEK293, 20 nM CNP, 0.4 nM IBMX, at least 3 repeat experiments with 4 replicates each; for Lable: high-confidence variant class
Experimental: Described herein is an in-vitro assay (cGMP) to assess the activities of >260 NPR2 variants. NPR2 protein-altering variants have been identified in the UK Biobank study and described in Estrada et al. (Nat Commun. 2021 12 (1): 2224). NPR2-expression constructs were transfected into HEK293 cells and 3 days later cells were treated with […] IBMX and 20 nM CNP in serum-free DMEM prior to measuring cGMP levels. The cGMP catchpoint ELISA competition assay (Molecular Devices) was used to measure cGMP according to manufacturer recommendations. RedLuc was used as a transfection control (FIG. 8A).
The NPR2 alpha-fold structure was obtained from a recent alpha-fold publication (Jumper et al., Nature 596:583-589 (2021)). A list of phenotypically characterized “high-confidence” variants was generated (Table 4). Phenotype is calculated by determining levels of cGMP using a standard curve. This value to normalized to RedLuciferase (transfection control). This value is further normalized by setting WT to 1. Average value is calculated from at least 3 repeat experiments with 4 replicates each.

Row | Molecule | average phenotype (NPR2) | Lable (NPR2) | further results
1 | CNP 53: active 53-amino acid peptide generated from pro-CNP by furin cleavage (DLRVDTKSRAAWARLLQEHPNARKYKGANKKGLSKGCFGLKLDRIGSMSGLGC; ends and bridges not checked; cysteine pairing not given here; UniProt P23582 74-126, looked up) | – | – | lumbar vertebral nppc expression ([1]; 3 days continuous high dose intravenous infusion): significantly reducing; plasma NTproCNP ([1]; females (n=6)): small decline; plasma NTproCNP ([1]; male rats (n=6)): did not reduce
2 | Human Growth Hormone [Human Growth Hormone (HGH)] | – | – | increase in NTproCNP, delta (plasma NTproCNP): 22%; increase in NTproCNP, mean (plasma NTproCNP): 11 pmol/L
3 | Arg776Trp: NPR2 protein-altering variant, expression construct transfected into HEK293 cells (protein) RNLTLAVVLPEHNLSYAWAWPRVGPAVALAVEALGRALPVDLRFVSSELEGACSEYLAPLSAVDLKLYHDPDLLLGPGCVYPAASVARFASHWRLPLLTAGAVASGFSAKNDHYRTLVRTGPSAPKLGEFVVTLHGHFNWTARAALLYLDARTDDRPHYFTIEGVFEALQGSNLSVQHQVYAREPGGPEQATHFIRANGRIVYICGPLEMLHEILLQAQRENLTNGDYVFFYLDVFGESLRAGPTRATGRPWQDNRTREQAQALREAFQTVLVITYREPPNPEYQEFQNRLLIRAREDFGVELGPSLMNLIAGCFYDGILLYAEVLNETIQEGGTREDGLRIVEKMQGRRYHGVTGLVVMDKNNDRETDFVLWAMGDLDSGDFQPAAHYSGAEKQIWWTGRPIPWVKGAPPSDNPPCAFDLDDPSCDKTPLSTLAIVALGTGITFIMFGVSSFLIFRKLMLEKELASMLWRIRWEELQFGNSERYHKGAGSRLTLSLRGSSYGSLMTAHGKYQIFANTGHFKGNVVAIKHVNKKRIELTRQVLFELKHMRDVQFNHLTRFIGACIDPPNICIVTEYCPRGSLQDILENDSINLDWMFRYSLINDLVKGMAFLHNSIISSHGSLKSSNCVVDSRFVLKITDYGLASFRSTAEPDDSHALYAKKLWTAPELLSGNPLPTTGMQKADVYSFGIILQEIALRSGPFYLEGLDLSPKEIVQKVRNGQRPYFRPSIDRTQLNEELVLLMERCWAQDPAEWPDFGQIKGFIRRFNKEGGTSILDNLLLRMEQYANNLEKLVEERTQAYLEEKRKAEALLYQILPHSVAEQLKRGETVQAEAFDSVTIYFSDIVGFTALSAESTPMQVVTLLNDLYTCFDAIIDNFDVYKVETIGDAYMVVSGLPGRNGQRHAPEIARMALALLDAVSSFRIRHRPHDQLRLRIGVHTGPVCAGVVGLKMPRYCLFGDTVNTASRMESNGQALKIHVSSTTKDALDELGCFQLELRGDVEMKGKGKMRTYWLLGERKGPPGLL | 0.01312 | LoF | –
4 | Thr907Met: NPR2 protein-altering variant, expression construct transfected into HEK293 cells (protein) RNLTLAVVLPEHNLSYAWAWPRVGPAVALAVEALGRALPVDLRFVSSELEGACSEYLAPLSAVDLKLYHDPDLLLGPGCVYPAASVARFASHWRLPLLTAGAVASGFSAKNDHYRTLVRTGPSAPKLGEFVVTLHGHFNWTARAALLYLDARTDDRPHYFTIEGVFEALQGSNLSVQHQVYAREPGGPEQATHFIRANGRIVYICGPLEMLHEILLQAQRENLTNGDYVFFYLDVFGESLRAGPTRATGRPWQDNRTREQAQALREAFQTVLVITYREPPNPEYQEFQNRLLIRAREDFGVELGPSLMNLIAGCFYDGILLYAEVLNETIQEGGTREDGLRIVEKMQGRRYHGVTGLVVMDKNNDRETDFVLWAMGDLDSGDFQPAAHYSGAEKQIWWTGRPIPWVKGAPPSDNPPCAFDLDDPSCDKTPLSTLAIVALGTGITFIMFGVSSFLIFRKLMLEKELASMLWRIRWEELQFGNSERYHKGAGSRLTLSLRGSSYGSLMTAHGKYQIFANTGHFKGNVVAIKHVNKKRIELTRQVLFELKHMRDVQFNHLTRFIGACIDPPNICIVTEYCPRGSLQDILENDSINLDWMFRYSLINDLVKGMAFLHNSIISSHGSLKSSNCVVDSRFVLKITDYGLASFRSTAEPDDSHALYAKKLWTAPELLSGNPLPTTGMQKADVYSFGIILQEIALRSGPFYLEGLDLSPKEIVQKVRNGQRPYFRPSIDRTQLNEELVLLMERCWAQDPAERPDFGQIKGFIRRFNKEGGTSILDNLLLRMEQYANNLEKLVEERTQAYLEEKRKAEALLYQILPHSVAEQLKRGETVQAEAFDSVTIYFSDIVGFTALSAESTPMQVVTLLNDLYTCFDAIIDNFDVYKVEMIGDAYMVVSGLPGRNGQRHAPEIARMALALLDAVSSFRIRHRPHDQLRLRIGVHTGPVCAGVVGLKMPRYCLFGDTVNTASRMESNGQALKIHVSSTTKDALDELGCFQLELRGDVEMKGKGKMRTYWLLGERKGPPGLL | 0.01456 | LoF | –
5 | Lys367Glu: NPR2 protein-altering variant, expression construct transfected into HEK293 cells (protein) RNLTLAVVLPEHNLSYAWAWPRVGPAVALAVEALGRALPVDLRFVSSELEGACSEYLAPLSAVDLKLYHDPDLLLGPGCVYPAASVARFASHWRLPLLTAGAVASGFSAKNDHYRTLVRTGPSAPKLGEFVVTLHGHFNWTARAALLYLDARTDDRPHYFTIEGVFEALQGSNLSVQHQVYAREPGGPEQATHFIRANGRIVYICGPLEMLHEILLQAQRENLTNGDYVFFYLDVFGESLRAGPTRATGRPWQDNRTREQAQALREAFQTVLVITYREPPNPEYQEFQNRLLIRAREDFGVELGPSLMNLIAGCFYDGILLYAEVLNETIQEGGTREDGLRIVEEMQGRRYHGVTGLVVMDKNNDRETDFVLWAMGDLDSGDFQPAAHYSGAEKQIWWTGRPIPWVKGAPPSDNPPCAFDLDDPSCDKTPLSTLAIVALGTGITFIMFGVSSFLIFRKLMLEKELASMLWRIRWEELQFGNSERYHKGAGSRLTLSLRGSSYGSLMTAHGKYQIFANTGHFKGNVVAIKHVNKKRIELTRQVLFELKHMRDVQFNHLTRFIGACIDPPNICIVTEYCPRGSLQDILENDSINLDWMFRYSLINDLVKGMAFLHNSIISSHGSLKSSNCVVDSRFVLKITDYGLASFRSTAEPDDSHALYAKKLWTAPELLSGNPLPTTGMQKADVYSFGIILQEIALRSGPFYLEGLDLSPKEIVQKVRNGQRPYFRPSIDRTQLNEELVLLMERCWAQDPAERPDFGQIKGFIRRFNKEGGTSILDNLLLRMEQYANNLEKLVEERTQAYLEEKRKAEALLYQILPHSVAEQLKRGETVQAEAFDSVTIYFSDIVGFTALSAESTPMQVVTLLNDLYTCFDAIIDNFDVYKVETIGDAYMVVSGLPGRNGQRHAPEIARMALALLDAVSSFRIRHRPHDQLRLRIGVHTGPVCAGVVGLKMPRYCLFGDTVNTASRMESNGQALKIHVSSTTKDALDELGCFQLELRGDVEMKGKGKMRTYWLLGERKGPPGLL | 0.01438 | LoF | –
